Data on one molecule can be found in patent US20160331662A1 (UAB RESEARCH FOUNDATION, published 2016).

A word on the Kd: it is the constant that tells how readily two partners part at equilibrium. A word on the koff: it is a measure of how fast the partners let go of each other. A word on the kon: it is a measure of how fast the partners come together.

Series [1] concerns the molecule itself. Briefly: SPR, analyte over immobilized iSRCR123; quantity and unit not printed beside the number, told as 'nanomolar affinities'. (In general: Surface plasmon resonance follows binding to a sensor surface in real time, without labels.)
The target in series [2] is T1, FL^AgI/II (S. mutans UA159 Antigen I/II, full length recombinant construct) (Streptococcus mutans UA159, UniProt P23504 39-1562).
T1 construct: also called CG14
T1 sequence (P23504 39-1562): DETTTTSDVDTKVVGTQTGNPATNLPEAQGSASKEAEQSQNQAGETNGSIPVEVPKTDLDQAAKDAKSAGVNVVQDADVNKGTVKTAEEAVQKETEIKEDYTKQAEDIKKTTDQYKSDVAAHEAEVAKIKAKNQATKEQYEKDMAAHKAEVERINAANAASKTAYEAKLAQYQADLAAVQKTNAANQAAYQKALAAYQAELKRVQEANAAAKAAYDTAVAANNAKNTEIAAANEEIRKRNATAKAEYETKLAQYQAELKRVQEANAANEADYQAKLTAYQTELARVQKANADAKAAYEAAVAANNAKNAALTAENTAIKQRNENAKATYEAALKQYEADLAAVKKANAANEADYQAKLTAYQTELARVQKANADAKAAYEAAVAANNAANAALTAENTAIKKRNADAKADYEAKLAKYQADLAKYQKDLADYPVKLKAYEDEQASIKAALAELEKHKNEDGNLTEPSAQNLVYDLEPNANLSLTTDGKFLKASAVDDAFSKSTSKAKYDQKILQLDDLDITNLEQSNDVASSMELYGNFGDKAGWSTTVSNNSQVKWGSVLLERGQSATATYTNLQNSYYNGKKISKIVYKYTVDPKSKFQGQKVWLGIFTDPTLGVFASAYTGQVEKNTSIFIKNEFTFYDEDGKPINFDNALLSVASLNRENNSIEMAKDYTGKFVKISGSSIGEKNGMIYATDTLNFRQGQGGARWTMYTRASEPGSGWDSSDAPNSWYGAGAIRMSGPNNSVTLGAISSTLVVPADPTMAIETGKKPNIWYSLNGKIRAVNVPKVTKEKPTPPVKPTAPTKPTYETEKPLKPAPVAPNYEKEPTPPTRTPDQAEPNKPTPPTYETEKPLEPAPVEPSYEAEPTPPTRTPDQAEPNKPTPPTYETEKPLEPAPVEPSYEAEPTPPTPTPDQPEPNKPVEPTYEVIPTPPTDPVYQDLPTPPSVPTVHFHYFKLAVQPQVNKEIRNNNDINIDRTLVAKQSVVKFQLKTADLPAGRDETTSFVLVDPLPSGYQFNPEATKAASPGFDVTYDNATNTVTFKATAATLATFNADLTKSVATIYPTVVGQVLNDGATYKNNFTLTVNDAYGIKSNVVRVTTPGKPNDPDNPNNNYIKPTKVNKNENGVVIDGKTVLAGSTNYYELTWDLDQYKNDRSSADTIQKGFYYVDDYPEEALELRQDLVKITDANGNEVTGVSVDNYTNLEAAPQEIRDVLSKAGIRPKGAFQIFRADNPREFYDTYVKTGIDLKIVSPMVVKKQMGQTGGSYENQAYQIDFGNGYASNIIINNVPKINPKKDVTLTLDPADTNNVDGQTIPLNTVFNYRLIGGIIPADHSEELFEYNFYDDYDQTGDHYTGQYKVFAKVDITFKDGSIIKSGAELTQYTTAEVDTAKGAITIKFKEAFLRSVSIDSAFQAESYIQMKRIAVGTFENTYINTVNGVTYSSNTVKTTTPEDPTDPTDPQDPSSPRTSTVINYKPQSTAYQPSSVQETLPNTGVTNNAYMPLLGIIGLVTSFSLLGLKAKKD
Briefly: SPR, analyte over ligand immobilized on CM5 chip, 1:1 Langmuir model.

The target of another series is T2, A3VP1^AgI/II (Streptococcus mutans UA159, UniProt P23504 386-874).
T2 construct: domain: A3VP1; also called A3VP1 of AgI/II
T2 sequence: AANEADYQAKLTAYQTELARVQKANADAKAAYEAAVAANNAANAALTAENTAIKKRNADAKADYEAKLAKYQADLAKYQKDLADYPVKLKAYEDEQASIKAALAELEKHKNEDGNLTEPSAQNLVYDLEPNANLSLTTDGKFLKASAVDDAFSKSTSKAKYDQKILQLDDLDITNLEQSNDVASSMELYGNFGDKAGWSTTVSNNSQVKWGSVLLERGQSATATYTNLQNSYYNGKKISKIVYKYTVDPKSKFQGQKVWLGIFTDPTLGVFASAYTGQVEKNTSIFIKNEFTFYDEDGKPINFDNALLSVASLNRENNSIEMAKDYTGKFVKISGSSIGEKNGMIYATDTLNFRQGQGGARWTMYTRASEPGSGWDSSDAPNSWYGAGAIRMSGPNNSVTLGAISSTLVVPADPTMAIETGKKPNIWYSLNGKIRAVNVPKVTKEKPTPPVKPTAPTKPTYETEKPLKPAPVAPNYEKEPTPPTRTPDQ
The series is described as above.

Series [3] concerns the target T3, FL^SspB (S. gordonii DL1 SspB, residues 39-1433) (Streptococcus gordonii DL1, UniProt P16952 39-1433).
T3 construct: range 39-1433
T3 sequence: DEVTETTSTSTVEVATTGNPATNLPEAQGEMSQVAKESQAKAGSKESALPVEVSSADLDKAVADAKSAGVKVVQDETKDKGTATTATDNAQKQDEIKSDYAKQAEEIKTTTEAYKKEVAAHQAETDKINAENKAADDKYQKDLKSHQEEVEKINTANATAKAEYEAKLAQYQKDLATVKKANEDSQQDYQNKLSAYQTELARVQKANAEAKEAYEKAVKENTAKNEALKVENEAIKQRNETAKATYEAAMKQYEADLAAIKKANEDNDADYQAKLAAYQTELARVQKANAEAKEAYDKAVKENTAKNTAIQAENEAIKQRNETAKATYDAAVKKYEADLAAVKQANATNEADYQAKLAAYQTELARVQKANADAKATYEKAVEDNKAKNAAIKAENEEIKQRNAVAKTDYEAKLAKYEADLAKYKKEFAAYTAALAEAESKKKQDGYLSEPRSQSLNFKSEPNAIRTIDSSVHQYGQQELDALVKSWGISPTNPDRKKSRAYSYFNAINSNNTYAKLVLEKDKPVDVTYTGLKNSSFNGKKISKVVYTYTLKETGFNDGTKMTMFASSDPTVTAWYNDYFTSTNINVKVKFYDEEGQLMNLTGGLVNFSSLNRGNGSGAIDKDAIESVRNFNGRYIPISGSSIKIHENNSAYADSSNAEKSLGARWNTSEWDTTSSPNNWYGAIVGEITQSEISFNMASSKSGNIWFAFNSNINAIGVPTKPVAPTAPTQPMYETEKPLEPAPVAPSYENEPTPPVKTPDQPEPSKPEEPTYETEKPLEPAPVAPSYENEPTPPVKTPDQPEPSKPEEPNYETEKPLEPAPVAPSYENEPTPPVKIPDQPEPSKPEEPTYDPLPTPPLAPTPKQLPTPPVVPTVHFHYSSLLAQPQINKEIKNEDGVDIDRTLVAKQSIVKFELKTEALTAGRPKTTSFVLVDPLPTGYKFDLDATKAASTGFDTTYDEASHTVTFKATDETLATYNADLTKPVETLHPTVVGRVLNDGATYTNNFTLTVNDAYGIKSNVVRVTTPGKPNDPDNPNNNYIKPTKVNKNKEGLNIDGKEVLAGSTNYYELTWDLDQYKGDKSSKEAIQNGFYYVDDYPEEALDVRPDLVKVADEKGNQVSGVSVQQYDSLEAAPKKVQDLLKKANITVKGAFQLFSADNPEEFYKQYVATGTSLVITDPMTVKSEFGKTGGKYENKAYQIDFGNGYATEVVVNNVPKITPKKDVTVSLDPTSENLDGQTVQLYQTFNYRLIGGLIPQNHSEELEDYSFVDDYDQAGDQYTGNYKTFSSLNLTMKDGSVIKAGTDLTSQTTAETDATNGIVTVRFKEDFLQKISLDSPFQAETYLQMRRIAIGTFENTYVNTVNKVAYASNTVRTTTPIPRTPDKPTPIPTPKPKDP
Described as above.

A further series deals with T4, C123^AgI/II (Streptococcus mutans UA159, UniProt P23504 1000-1486).
T4 construct: domain: C123
T4 sequence: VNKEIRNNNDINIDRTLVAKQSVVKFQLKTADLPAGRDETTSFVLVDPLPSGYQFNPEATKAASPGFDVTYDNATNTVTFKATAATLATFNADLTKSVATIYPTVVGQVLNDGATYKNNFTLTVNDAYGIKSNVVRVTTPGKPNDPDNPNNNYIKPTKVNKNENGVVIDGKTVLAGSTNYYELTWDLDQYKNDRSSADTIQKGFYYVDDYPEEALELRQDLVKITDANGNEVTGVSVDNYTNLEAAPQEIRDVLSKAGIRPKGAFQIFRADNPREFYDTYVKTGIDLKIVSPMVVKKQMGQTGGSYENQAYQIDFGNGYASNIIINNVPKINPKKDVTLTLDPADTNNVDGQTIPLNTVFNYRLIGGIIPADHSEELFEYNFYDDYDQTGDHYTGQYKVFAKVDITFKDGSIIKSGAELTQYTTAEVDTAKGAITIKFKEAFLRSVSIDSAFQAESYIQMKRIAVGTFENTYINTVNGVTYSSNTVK
The series is described as above.

B1: iSRCR123 (receptor, not shown: small tags and cut ends)
chain: not shown
notes: domain: SRCR123; also called SRCRs; iSRCRs
Regarding B1, the Kd amounted to 6.72 nM in series [1]; 7.46 nM in series [2]; 125 nM in the series with A3VP1^AgI/II; 42.1 nM in series [3]; 87 nM with C123^AgI/II. Further, the Ka was found to be 1.34e+08 M⁻¹ in series [2], 7.98e+06 M⁻¹ in the series with A3VP1^AgI/II, 2.38e+07 M⁻¹ in series [3] and 1.15e+07 M⁻¹ with C123^AgI/II. Besides, the koff was found to be 0.000743 s⁻¹ in series [2], 0.00249 s⁻¹ in the series with A3VP1^AgI/II, 0.000759 s⁻¹ in series [3] and 0.000721 s⁻¹ in the series with C123^AgI/II. Besides, the kon in series [2] worked out at 99700 M⁻¹ s⁻¹; in the series with A3VP1^AgI/II, 19900 M⁻¹ s⁻¹; in series [3], 18200 M⁻¹ s⁻¹; in the series with C123^AgI/II, 8290 M⁻¹ s⁻¹.
